Data as given in article PMC2872913.

Target: taxol-stabilized microtubules
Test: co-sedimentation

“p150^glued MBD-(His)6 after incubation with aurora A protein kinase and ATP (domain or fragment)” showed a fold weaker affinity against MBD not phosphorylated by aurora A of 5 fold.
